Source: US20200181257A1 (Chugai, published 2020)
Where a chain is given by its changes, count along the chain named. Numbers in names are those of the source.

T1: human Fcγ receptor hFcgRIIa (H) (human, UniProt P12318 36-217)
T1 construct: also called FcγRIIa (type H); FcγIIA
T1 sequence: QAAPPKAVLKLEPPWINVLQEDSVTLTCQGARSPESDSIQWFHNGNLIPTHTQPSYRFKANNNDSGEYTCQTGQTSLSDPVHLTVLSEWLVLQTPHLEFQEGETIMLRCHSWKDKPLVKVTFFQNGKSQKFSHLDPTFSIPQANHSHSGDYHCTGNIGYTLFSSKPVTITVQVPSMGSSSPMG

T2: human Fcγ receptor hFcgRIIb (human, UniProt P31994 43-217, limits assumed)
T2 construct: Construct used in the SPR assay is not described; also called FcγRIIb; FcγIIB
T2 sequence: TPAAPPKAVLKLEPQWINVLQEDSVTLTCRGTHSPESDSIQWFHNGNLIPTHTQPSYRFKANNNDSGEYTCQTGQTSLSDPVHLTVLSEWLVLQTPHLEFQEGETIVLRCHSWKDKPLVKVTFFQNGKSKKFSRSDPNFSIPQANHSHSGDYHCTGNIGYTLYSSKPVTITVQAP

T3: human Fcγ receptor hFcgRIIa (R) (human, UniProt P12318 36-217)
T3 construct: also called FcγRIIa (type R); FcγIIA
T3 chain: T1 sequence with H133R

B1: TS13 (antibody)
heavy: QVQLQESGPGLVRPSQTLSLTCTVSGYSITSDHAWSWVRQPPGRGLEWIGYISYSGITTYNPSLKSRVTMLRDTSKNQFSLRLSSVTAADTAVYYCARSLARTTAMDYWGQGSLVTVSSASTKGPSVFPLAPSSKSTSGGTAALGCLVKDYFPEPVTVSWNSGALTSGVHTFPAVLQSSGLYSLSSVVTVPSSSLGTQTYICNVNHKPSNTKVDKKVEPKSCDKTHTCPPCPAPELLGGPSVFLFPPKPKDTLMISRTPEVTCVVVDVPMEFPEVKFNWYVDGVEVHNAKTKPREEQYNSTYRVVSVLTVLHQDWLNGKEYKCKVSNKALPAPIEKTISKAKGQPREPQVYTLPPSRDELTKNQVSLTCLVKGFYPSDIAVEWESNGQPENNYKTTPPVLDSDGSFFLYSKLTVDKSRWQQGNVFSCSVMHEALHNHYTQKSLSLSP
light: not shown
notes: anti-IL6R IgG1, G1d with S267P/H268M/D270F (EU)
B2: TS16 (antibody)
heavy: B1 heavy with P269S, M270H, F272D, Q297M, Y298G, S300G
light: not shown
notes: anti-IL6R IgG1, G1d with Q295M/Y296G/S298G (EU)

What was measured:
Assay in all cases: SPR, antibody captured on Protein A
[1] = target: T1, human Fcγ receptor hFcgRIIa (H)
Experimental: (§1) The CH2 domain, which was modified in this examination, is known to be involved in interaction with several human Fcγ receptors (hereinafter denoted as hFcgRs) which affect effector functions. Therefore, the binding of TS1 and TS19 prepared by using the H chain of anti-IL6R produced in Example 2 to hFcgRs was measured, according to the method described in Reference Example 3.
(§2) Interactions between antibodies and hFcgRs (hFcgRIa, hFcgRIIa(R), hFcgRIIa(H), hFcgRIIb, hFcgRIIIa(F), and hFcgRIIIa(V)) were analyzed using Biacore T100 (GE Healthcare). HBS-EP+(GE Healthcare) was used for the running buffer, and the measurement temperature was set at 25° C. Protein A (Invitrogen) was immobilized by the amino coupling method, and an antibody of interest was captured thereon. Then, hFcγR solutions diluted using the running buffer were injected to allow interaction with the captured antibody at a flow rate of 30 μL/min for five minutes for hFcγRIa, and at a flow rate of 5 μL/min for one minute for the other hFcγRs. […] Since the hFcγR binding level depends on the amount of captured antibodies, the FcgR-binding levels were corrected so that the capture level of each antibody would be 200 RU (resonance unit) for hFcgRIa and 1000 RU (resonance unit) for the other hFcgRs. The captured antibodies were washed by allowing 10 mM glycine-HCl (pH 1.5) to react for 30 seconds at a flow rate of 30 μL/min to recycle the chip for reuse.

[2] = target: T2, human Fcγ receptor hFcgRIIb
Experimental: as §1, §2

[3] = target: T3, human Fcγ receptor hFcgRIIa (R)
Experimental: as §1, §2

[4] = target: T4, human Fcγ receptor hFcgRIa (human, UniProt P12314 16-292, limits assumed)
T4 construct: Construct used in the SPR assay is not described; also called hFcγRIa; FcγI
Experimental: as §1, §2

[5] = target: T5, human Fcγ receptor hFcgRIIIa (V) (human, UniProt P08637 17-208)
T5 construct: also called FcγRIIIa allotype V158; FcγIIIA
Experimental: as §1, §2

T4 sequence (P12314 16-292 limits assumed): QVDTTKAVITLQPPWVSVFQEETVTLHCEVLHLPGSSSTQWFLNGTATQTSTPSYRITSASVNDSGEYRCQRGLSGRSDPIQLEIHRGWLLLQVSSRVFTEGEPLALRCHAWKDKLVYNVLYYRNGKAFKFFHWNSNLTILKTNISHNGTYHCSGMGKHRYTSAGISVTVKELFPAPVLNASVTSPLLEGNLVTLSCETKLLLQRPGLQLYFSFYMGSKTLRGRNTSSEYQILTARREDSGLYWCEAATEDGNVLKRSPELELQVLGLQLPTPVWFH
T5 sequence (P08637 other isoform, or with tags, fused parts or gaps limits assumed): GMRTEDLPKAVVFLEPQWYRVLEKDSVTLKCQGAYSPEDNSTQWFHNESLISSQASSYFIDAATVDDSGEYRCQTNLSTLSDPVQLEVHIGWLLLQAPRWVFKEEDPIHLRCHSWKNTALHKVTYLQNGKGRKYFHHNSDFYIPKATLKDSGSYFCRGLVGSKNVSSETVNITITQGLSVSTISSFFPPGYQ

| Binder | binding relative to G1 (=100) [1] | binding relative to G1 (=100) [2] | binding relative to G1 (=100) [3] | binding relative to G1 (=100) [4] | binding relative to G1 (=100) [5] |
| --- | --- | --- | --- | --- | --- |
| B1 | 1.2 | 3.4 | 1.2 | 63 | 1.4 |
| B2 | 15.9 | 21.7 | 25.3 | 96.8 | 28.9 |
